Assay: soluble fraction after stress (log2 fold change); higher = more stays soluble; pooled small domains, quantitative proteomics
Conditions: stress: 50 degC
In short: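 Each library was heated to 50°C as a stress step. The libraries, made up of small protein domains, were pooled and analysed at high throughput by quantitative proteomics. The reported value is the base-two logarithm of the fold change in each protein's soluble amount after stress, taken as a measure of aggregation propensity. The higher the value, the more protein stays in solution.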

| Sequence | soluble fraction (log2) |
| --- | --- |
| HMSGRSVSYSEFMSRVEAGQVSSVTLDGERVEVTGSDGSRYVTIAPSDATLTDKLVAKGVEVRADP | 0.102 |
| HMDDFNLSPREKDVLGHLVKGNSYKMIADELQIGYDTVHSHIKKIYKKLHVNSMSEAVAKALKNKL | 0.543 |
| HMLSLSDIINDVMERLTREKNLTFDELLGEKRERRRIVYTFLALLELIRLKMIKAYQTAAFGVIRIFPR | -0.898 |
| HMIVPPAIPFRALGIFGPRDRPIVTFEDGPRLINAREGDVLDGRFILRRVGRESVDFAFVGLPPEITRRIP | -0.466 |
| HMTGQHFDLEDTDGNLVYEIDSTVPLKTFYIYDAMHTEIFRMTKELLHALPTYRFYLYGEPYGVLKKQ | -0.174 |
| HMRQVFPNPSSSQIKLASSRIGQAFSILDQQGRVVLSGKVSEEAVIALENLAKGIYVLKIGSWSETILK | -0.903 |
| HMDGQPQLLIKNGQLLVSTALKNGMSANDLMFRLRTEGITDIRYVKRAVLEQNGQLTITQVGDD | -0.105 |
| HMLERKPVLVASRDLPALAVIGKDDLSVELLRTAPVGSYDRPEALLGKRVWVAVPAGSILSAATLEP | -0.103 |
| HMKVFREERLQLILEKLIHEKKVVVSDLVKYFNVSPSLIRMDLAELEKRDLILRTHGGAILPD | -2.23 |
| HMEPQSRTAYRLIEAMIVTHELPPGSRISEASLSAKLGIGRTPIREALQRLSFEGTVKIVPRSGAFVSEI | -2.76 |
| HMIKIDESTLSEDELKIFEILKIEDKNIENIAIESKILPGKLLATLMNMEMKKIVVQYPGKVFGLNRKLK | -0.492 |
| HMSEEVDVPDLVGMQLEEAEKSLEPLGLKLKIAKEIPNSEFEKGKIVDQKTKAGEKVKTGYTIEVTVSSG | -0.267 |
| HMRFGNHHVYRTLMVLSDQKRKGRKQIADAVGIGEGSMRTIIEYLRGLDMIDIRQTGVKITRHGNAFL | 0.0164 |
| HMPRPFPELTTREHDILALIARGWSNGRIADHLSLSGKTVSNYVSNILGKLQVTARAEAAERAREAGMGQ | -0.00905 |
| HMDIINLADNIARLRRRRQITQEELADYLGVTKAAVSKWENRQTMPDILLLPRLAGLFEVTIDELVGY | -1.42 |
| HMVVVVELTENEKAVQDVLTKNEGSLEISDLKTKLELSGKQWDKALKGLAKHGITQVAKVDGVVTVSL | -0.303 |
| HMAAENAVGARVKALREAMDLSLRDLSERSGVSPTMLSQVERGSTSPTLAVAEKIAAGLDLSLSQLLRL | -0.0179 |
| HMTSMTHLGRHPDSEISLDDISVSRRHAEIERQGHEYVLRDSGSLNGTYVNQQRVDSVVLQQGDEIL | 0.234 |
| HMNKQEFLNTLRIIFKKANVLDVESIIDVYEEHFAVGYEKGLNDEQIIKSLGTPKEIYTSYVEAGI | -0.615 |
| HMHDLSQQIVRYLIQQGGSSSLTDKSDPQEIYRTFKVSKKKYKQALGNLYKSKTIVITSGKIELVD | -2.69 |
| HMVEDFSEVLLQYIREQGGAIALNDKTDAGVIYDTFGVSKKTFKKAVGDLYKKRLIVLGDEGIRLA | -0.619 |
| HMIAGHLQEKKGFFYIVLSYPDAAGKRKTKWFPTKLSVKGNKKKAEVMLMDARKTFVPPETPL | -0.501 |
| HMDPKWSHVRRLLDDENPIVRKALTEELIRSPEEGLAFLEQVIREPDHLLAKHAHNLLSELGWV | 0.0264 |
| HMAMPQPVARALHRLGQDISAARRMRRLSQEDLAQRIGTSLSTVRRMEDGYPGTALHTFLRALHML | -0.261 |
| HMVETDQESSLIQAIYKYFEITGDNTFFDEKVGEKTVADRMEWAMDYLIQNRFSEEYGLIWGA | -0.2 |
| HMSAPAKKPKIKVDLSKVHAGTIVRHKGYGLGQVKGIDGAIIVVTFDGVDKKFQFPGGFENGFLFLTED | -0.0311 |
| HMNIVVSSIDSNSFEIVNKETGEQAVISYDKETKKGFVLINGVKKEFFQDGNKVYYDGYVIAE | 0.227 |
| HMKTEKYIQVISGTVNVRSGPGTSYAEIAKIDASQIYVVTAKEGEWLKISLANGTIGYVAGWLVKEVTG | -0.186 |

| Sequence | soluble fraction (log2) |
| --- | --- |
| HMTGSALDATIEKLLDLGSKAGSVTEDEIQIVLKNVDVTDAQLSSIYQFLRDRGVEIVSATEDDD | 0.0977 |
| HMTNIQFINLKMTDNHPWIHQYIKDIILPPQTRIVMIKRNDIKTIPKGERRIEKDDELILSAFESQT | -1 |
| HMDLTPEEQMDLYRLLDSLPTEERTYLILHYFEERSFPEMAEILSMPEAKLKSRFYRILHRLRAHL | -2.56 |
| HMTSVQDLLRNGDRVGYQNGSTVKYWLEEMGFHKKDLLGYVTVEEYAEALQRGSGNGGVSAIVD | -0.961 |
| HMNKIGTIVSINGPIVKTAGDVGFVMHEMVYVGKEKLVGEVIGLTTDFTIVEVYEETSGIKPGETIEGT | -1.5 |
| HMDLPSSETLKVKLNLAKAYVTIEDFGAARRALDEVLSVSSLVDPDLTIQAKSLLAEIDQRS | -0.0514 |
| HMFEEPYLATYPVLIDPKLAFNVLDTMLEGLEVKMDQDEETGAISVLAPASIHTKITEYLDALSKQ | -0.159 |
| HMRGLIEPLSQRELEVLMLMARGQSNAHIADQLNISENTIKWHGRNIFGKLGVSNRTEAVITSQEMGMLAT | -0.621 |
| HMQKIEKVDYGTFLKMIENGEIDQVNLTEKKISFTTDKDAETVYETGRVEDPNIVDRLYQADVEFTQEI | 0.207 |
| HMKRLPAQMGGGDGVLRVPGLNNFVYVTIADKTLPAFNNRVPPKKGLRIWVGYSPEEPNLFQVLSTRTD | -0.576 |
| HMELTDSLTENAKKLYSVLTTEPRHIDDLSEEAKLSSADTLAALTELELYSLVALSEGKHYYK | 0.00954 |
| HMPGEATVPSVIGMTKAEAKAKLQASGFELGYSEFVASDKPKGEIVEQDPGAGETAKGGTEVNVKISDGS | -0.0145 |
| HMVLTSFHDNFPKTGTTYTVRSGDTISGIATKFGSTRDWIQNANEISHPKYLQVGRTLFIPH | -0.203 |
| HMNPFLELTEREMDVLRLIAIGRNNQEIASELVISEKTVKTHITNIFSKLHFKDRTQAAAYAWQSGIVR | -0.74 |
| HMEKALEVKYQKMVELLGDQSTFYVDEVKKIFPEMKKSSLYWNMSKLVEGGYLRRIRNGVYAFNE | -0.48 |
| HMQEDSNISFVKIHVDADSGMAHKKLSKLSLPTGFLIVVIIRGEENIIPNGETEVLPGDLLVAAAREFEN | -0.405 |
| HMQQELDAFKLLITVSGVGPKAAMAVLSVLPPDRLSIAVSSGDVKSIQSAQGVGKKTAERIVLELKDKM | -0.814 |
| HMKSYAQIAEILSGQQPNTSRKEGSNLAVHADWIDALIAKYGTALRPEEANEVVKKEIGIVFSHVLEN | -0.0639 |
| HMLPFGHTRLEDGTIQEIPEQIALARKVAEMYKAGFPVMQISIKTEGLLTPRQIYGLMNHWGVKR | -1.24 |
| HMKFINISIDKSGNLFINKKSIKFQDLKYNVVNLVDESKNLVVLNADENISHGYVISVLDVLRSIDGLKLA | -2.18 |
| HMINLNEVLANFQKSYPNLAGFKYDQGMDALVYEGNYIRLNGYMLSRINPTLFSMSPDDIFTYLKNGF | -2.53 |
| HMGMVEFEIGERDHSEDVSRKLFEAGLIEDASDFNQYMIEKKMDDHLQTGKYQIPKGATKDEILELIVR | -0.00544 |
| HMRKIGDVLRLHAGGLSKRRIAVSLNIGRTAVGDYISRARRAGLGWPLPEDLSEEALERLLFPPP | -2.59 |
| HMENSPLTHREAEVMRLMSEGKSNRAISEHLVISEKTVKNHVSSILQKMSVDDRTQAVLQAIKNGWVD | 0.23 |
| HMKTATAKIKATPFGWLRVRETPSLNGAEIARVNSGESYKILERGEGWIKIKVSDTVEGWVSEAYVELS | -0.102 |
| HMSDFEASDPALLREGMRVQHLNFGKGTVITIEGAGANKKASVAFDGVGTKQLMLRFARLKIIYE | -0.146 |
| HMRELSDFEKLLFTTTLERKMINLAMLLTRSNKADSKDLIQDSYLKAIENQVQFNGNNIDAWVITILKNTF | 0.139 |

From the domain aggregation screens of Martell et al. (2025)
